According to FireProtDB (doi:10.1021/bi00177a023):

B1: Guanyl-specific ribonuclease T1, P00651 (parent)
chain: MMYSKLLTLTTLLLPTALALPSLVERACDYTCGSNCYSSSDVSTAQAAGYQLHEDGETVGSNSYPHKYNNYEGFDFSVSSPYYEWPILSSGDVYSGGSPGADRVVFNENNQLAGVITHTGASGNNFVECT

Variants of: B1
Conditions: Aspergillus oryzae (strain ATCC 42149 / RIB 40); pH 5; Thermal; DSC; Sodium borate-NaOH 10 mM; NaCl 80 mM; reversible: yes; structure 1RN1; whole UniProt chain shown

Row | Variant | Tm [°C] | heat capacity change of unfolding [kcal/mol/K] | unfolding enthalpy (calorimetric) [kcal/mol] | unfolding enthalpy (van 't Hoff) [kcal/mol]
1 | MMYSKLLTLTTLLLPTALALPSLVERACDYTCGSNCYSSSDVSTAQAAGYKLHEDGETVGSNSYPHKYNNYEGFDFSVSSPYYEWPILSSGDVYSGGSPGADRVVFNENNQLAGVITHTGASGNNFVECT | 61.2 | 1.14 | 122 | 115

Same assay, conditions: Aspergillus oryzae (strain ATCC 42149 / RIB 40); pH 6; Thermal; DSC; Sodium borate-NaOH 10 mM; NaCl 80 mM; reversible: yes; structure 1RN1; whole UniProt chain shown

Row | Variant | Tm [°C] | heat capacity change of unfolding [kcal/mol/K] | unfolding enthalpy (calorimetric) [kcal/mol] | unfolding enthalpy (van 't Hoff) [kcal/mol]
2 | MMYSKLLTLTTLLLPTALALPSLVERACDYTCGSNCYSSSDVSTAQAAGYKLHEDGETVGSNSYPHKYNNYEGFDFSVSSPYYEWPILSSGDVYSGGSPGADRVVFNENNQLAGVITHTGASGNNFVECT | 56.9 | 0.99 | 112 | 110

Same assay, conditions: Aspergillus oryzae (strain ATCC 42149 / RIB 40); pH 6.5; Thermal; DSC; Sodium borate-NaOH 10 mM; NaCl 80 mM; reversible: yes; structure 1RN1; whole UniProt chain shown

Row | Variant | Tm [°C] | heat capacity change of unfolding [kcal/mol/K] | unfolding enthalpy (calorimetric) [kcal/mol] | unfolding enthalpy (van 't Hoff) [kcal/mol]
3 | MMYSKLLTLTTLLLPTALALPSLVERACDYTCGSNCYSSSDVSTAQAAGYKLHEDGETVGSNSYPHKYNNYEGFDFSVSSPYYEWPILSSGDVYSGGSPGADRVVFNENNQLAGVITHTGASGNNFVECT | 54 | 1.19 | 109 | 109

Same assay, conditions: Aspergillus oryzae (strain ATCC 42149 / RIB 40); pH 8.6; Thermal; DSC; Sodium borate-NaOH 10 mM; NaCl 80 mM; reversible: yes; structure 1RN1; whole UniProt chain shown

Row | Variant | Tm [°C] | heat capacity change of unfolding [kcal/mol/K] | unfolding enthalpy (calorimetric) [kcal/mol] | unfolding enthalpy (van 't Hoff) [kcal/mol]
4 | MMYSKLLTLTTLLLPTALALPSLVERACDYTCGSNCYSSSDVSTAQAAGYKLHEDGETVGSNSYPHKYNNYEGFDFSVSSPYYEWPILSSGDVYSGGSPGADRVVFNENNQLAGVITHTGASGNNFVECT | 46.6 | 1.15 | 97.6 | 102

Same assay, conditions: Aspergillus oryzae (strain ATCC 42149 / RIB 40); pH 9.7; Thermal; DSC; Sodium borate-NaOH 10 mM; NaCl 80 mM; reversible: yes; structure 1RN1; whole UniProt chain shown

Row | Variant | Tm [°C] | heat capacity change of unfolding [kcal/mol/K] | unfolding enthalpy (calorimetric) [kcal/mol] | unfolding enthalpy (van 't Hoff) [kcal/mol]
5 | MMYSKLLTLTTLLLPTALALPSLVERACDYTCGSNCYSSSDVSTAQAAGYKLHEDGETVGSNSYPHKYNNYEGFDFSVSSPYYEWPILSSGDVYSGGSPGADRVVFNENNQLAGVITHTGASGNNFVECT | 44 | 1.38 | 94 | 105
